# Ends that are not written are not given here.
# Legend:
# [1] = target: T1, fibrin in human plasma clots (Homo sapiens, UniProt P02671+P02675+P02679); experiment: In vitro MRI of plasma clots at 100 μM (Example 14)
# T1 construct: tissue Dade Behring Control Plasma N; host or cells: clots formed in vitro from pooled human plasma with Pathromtin SL and CaCl2
# T1 sequence (P02671 36-629 limits assumed): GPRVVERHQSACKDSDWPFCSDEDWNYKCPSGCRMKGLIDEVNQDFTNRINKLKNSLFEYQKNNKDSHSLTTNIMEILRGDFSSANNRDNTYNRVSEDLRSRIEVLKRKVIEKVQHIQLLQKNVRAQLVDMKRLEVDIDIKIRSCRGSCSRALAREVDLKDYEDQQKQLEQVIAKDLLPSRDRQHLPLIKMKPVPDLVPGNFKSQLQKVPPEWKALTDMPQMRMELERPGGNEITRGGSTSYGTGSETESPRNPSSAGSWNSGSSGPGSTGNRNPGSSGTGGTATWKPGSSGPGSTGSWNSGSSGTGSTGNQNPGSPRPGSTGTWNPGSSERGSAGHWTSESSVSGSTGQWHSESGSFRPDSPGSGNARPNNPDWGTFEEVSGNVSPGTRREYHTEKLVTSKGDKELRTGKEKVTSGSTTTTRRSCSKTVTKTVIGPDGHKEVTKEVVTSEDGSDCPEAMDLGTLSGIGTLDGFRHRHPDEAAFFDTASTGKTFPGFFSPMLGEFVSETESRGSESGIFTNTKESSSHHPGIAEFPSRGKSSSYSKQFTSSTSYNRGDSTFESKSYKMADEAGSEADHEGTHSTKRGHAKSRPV
# T1 sequence (P02675 45-491 limits assumed): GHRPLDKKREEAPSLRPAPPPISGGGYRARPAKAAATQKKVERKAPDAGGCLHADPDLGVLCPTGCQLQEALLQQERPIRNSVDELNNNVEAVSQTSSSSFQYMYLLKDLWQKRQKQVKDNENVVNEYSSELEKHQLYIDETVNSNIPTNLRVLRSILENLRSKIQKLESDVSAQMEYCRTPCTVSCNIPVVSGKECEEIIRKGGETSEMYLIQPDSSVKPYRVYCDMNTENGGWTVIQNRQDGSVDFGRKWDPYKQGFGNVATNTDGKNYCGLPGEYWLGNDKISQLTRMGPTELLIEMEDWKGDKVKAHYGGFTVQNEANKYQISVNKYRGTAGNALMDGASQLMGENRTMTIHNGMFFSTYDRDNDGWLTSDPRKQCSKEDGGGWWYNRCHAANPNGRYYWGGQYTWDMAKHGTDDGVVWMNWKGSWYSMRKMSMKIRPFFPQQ
# T1 sequence (P02679 27-437 isoform P02679-2 limits assumed): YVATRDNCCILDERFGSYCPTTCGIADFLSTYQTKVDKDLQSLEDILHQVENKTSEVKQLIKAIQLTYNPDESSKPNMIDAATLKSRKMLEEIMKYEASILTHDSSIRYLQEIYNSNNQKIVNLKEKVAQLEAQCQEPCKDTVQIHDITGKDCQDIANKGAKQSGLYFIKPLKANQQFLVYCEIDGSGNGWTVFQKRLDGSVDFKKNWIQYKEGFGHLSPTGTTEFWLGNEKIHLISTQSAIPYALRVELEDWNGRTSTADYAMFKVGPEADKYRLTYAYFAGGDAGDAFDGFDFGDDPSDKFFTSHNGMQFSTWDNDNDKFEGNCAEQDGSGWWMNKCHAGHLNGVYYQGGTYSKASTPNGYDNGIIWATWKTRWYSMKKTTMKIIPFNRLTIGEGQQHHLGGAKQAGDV
# Method: Small plasma clots from different species (human, guinea pig and mouse) were formed by combining citrate plasma (1:3,v/v) phospholipids (Reagent Pathromtin) and CaCl2 0.008 M (Dade Behring, Germany) into small 2 ml vials at 37° C. Clots were washed 3 times with TBS 1× and incubated with contrast agents at a concentration of 100 μM of complex, for 30 minutes at 37° C. Two clots were prepared for each solution of incubation. After the incubation clots were washed 4 times with TBS 1× and placed into small vials filled with TBS 1× for MRI analysis. […] Maximum signal intensity of each clot was measured in recovered MR images and compared to the signal from clots incubated with TBS. […]
# (§1) High resolution MRI was then performed at 2 Tesla by using T1-weighted Spin-Echo (SE) sequences. T1 maps were also calculated from the acquisitions of 2D gradient echo images or inversion recovery spin echo images.
# (§2) The maximum signal intensity was measured within a region of interest (ROI) including a clot, drawn by an operator on each MR image using a dedicated software (MR Research Systems Ltd, Surrey UK). Max signal intensity enhancement (Enh %) was determined as: Enh %=100*(SIx−SI0)/SI0 where SI0 and SIx are the signal intensity of clots incubated without and with test compounds, respectively.
# fibrin in human clots = target: T2, fibrin in human clots (Homo sapiens, UniProt P02671+P02675+P02679); experiment: In vitro MRI of human clots at different incubation concentrations (Example 15)
# T2 construct: tissue Dade Behring Control Plasma N; host or cells: clots formed in vitro from pooled human plasma with Pathromtin SL and CaCl2
# T2 sequence (P02671 36-629 limits assumed): T1 sequence (P02671 36-629 limits assumed)
# T2 sequence (P02675 45-491 limits assumed): T1 sequence (P02675 45-491 limits assumed)
# T2 sequence (P02679 27-437 isoform P02679-2 limits assumed): T1 sequence (P02679 27-437 isoform P02679-2 limits assumed)
# Method: By following the above procedure, a second wider group of chelate compounds of the invention including, for instance, Chelate Complexes from 1 to 7 and the Reference Compounds from 1 to 6 were tested on human clots at different incubation concentration (25 to 400 μM of complex). Signal enhancement (%) was then determined for each clots by MR Imaging at 2T and corresponding Gd content in clots was measured by ICP.
# By comparing the signal enhancement in clots, for instance at incubation concentration of 100 μM of peptide, tested compounds could be classified in term of performance as follows (Max signal enhancement was normalized to the chelate complex 4): […]
# as §1, §2
substance,measurement,setting,value
"Chelate Complex 1: Gd chelate (four DTPA-Glu) conjugated via linker to fibrin-binding peptide SEQ ID NO:001 (WQPCPAESWTFCWDPGGGK; cysteine pairing not given here; also: Gd chelate (four DTPA-Glu) conjugated via linker, site not given here, metal complex: Gd)","Signal enhancement in clots, comparison in words",[1]; 100 μM of complex,provides the maximum signal enhancement
same,Max signal Enhancement at 100 μM,"[1]; clots incubated with 100 μM of complex, 30 min, 37°C, T1-weighted MRI at 2T, normalized to chelate complex 1",100%
same,Max signal Enhancement (%) at 100 μM,"fibrin in human clots; human clots, incubation 100 μM of peptide, MRI at 2T, normalized to chelate complex 4",93.2%
same,"Signal enhancement in clots, comparison in words",fibrin in human clots; incubation concentration 100 μM,best results

# Reference: patent US9333272B2, “Fibrin binding peptide conjugates for diagnostic and therapeutic applications” (Bracco Imaging SpA, priority 2006, dated 2016)
